Values of other authors in publication PMC7214499.

Target: IFNAR2 ECD (Homo sapiens) (UniProt P48551)
UniProt P48551, sequence (P48551 27-243): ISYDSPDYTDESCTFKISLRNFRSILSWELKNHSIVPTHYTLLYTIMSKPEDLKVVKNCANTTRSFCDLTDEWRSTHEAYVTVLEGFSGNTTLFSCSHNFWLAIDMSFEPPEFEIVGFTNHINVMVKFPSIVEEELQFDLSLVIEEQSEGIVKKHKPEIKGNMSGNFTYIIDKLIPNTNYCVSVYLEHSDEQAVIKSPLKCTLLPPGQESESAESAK

Kd: 0.01 µM
Substance: IFNα2 (from UniProt P01563)
